Experimental data from patent US20110158992A1 (SCHERING, published 2011).
Positions count from the first letter of the chain named. In names and notes the source's numbering stands.

B1: rat anti-human IL-23R antibody 8B10 (antibody, rat IgG2a, V domains shown)
VH: EVKLVESGGGLEQPKGSLKLSCTVSGFDFNSYGMSWVRQAPGKGLDLVADINSKSYNYATYYADSVKDRFTISRDDSQSMVYLEMDNLKTEDTALYYCTVHHSDYFEYWGQGVMVTVSS
VL: DIQMTQSPASLSASLGETVSIECLASEDIYNNLAWYQQKPGKSPQLLIYHASSLQDGVPSRFSGSGSGTQYSLKINSLESEDAATYFCLQDSEYPPTFGGGTKLELKR
notes: also called r8B10
B2: full-length chimeric 8B10 antibody, VL N31T (antibody, V domains shown)
VH: B1 VH
VL: B1 VL with N31T
notes: also called N31T variant
B3: chimeric 8B10 full-length antibody (antibody, V domains shown)
VH: B1 VH
VL: B1 VL
notes: also called chim8B10

Key:
human IL-23R [1] = molecular target: T1, human IL-23R (human, UniProt Q5VWK5 24-353, limits assumed); assay: BIAcore SPR, antibody immobilised
T1 construct: also called huIL-23R; human interleukin-23R
T1 sequence: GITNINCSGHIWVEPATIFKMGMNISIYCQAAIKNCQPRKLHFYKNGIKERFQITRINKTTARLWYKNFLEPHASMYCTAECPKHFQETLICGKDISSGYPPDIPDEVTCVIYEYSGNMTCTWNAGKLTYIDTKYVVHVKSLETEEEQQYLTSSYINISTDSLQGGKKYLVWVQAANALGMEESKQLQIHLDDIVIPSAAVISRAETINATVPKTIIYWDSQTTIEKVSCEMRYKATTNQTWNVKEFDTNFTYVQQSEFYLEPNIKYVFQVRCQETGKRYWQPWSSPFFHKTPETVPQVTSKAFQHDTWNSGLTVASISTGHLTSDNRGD
Procedure: (§1) BIAcore® label-free interaction analysis system determinations are performed essentially as described at Example 4 of U.S. Patent Application Publication No. 2007/0048315, which is hereby incorporated by reference. Briefly, ligands (anti-IL-23R mAbs) are immobilized on a BIAcore® label-free interaction analysis system CM5 sensor chip using standard amine-coupling procedure. Kinetic constants for the various interactions are determined using BIAevaluation software 3.1. The Kd is determined using the calculated dissociation and association rate constants.
Several sequence variants intended to increase the chemical stability of hu8B10-b were produced to evaluate their effects on binding affinity. Kd values are provided at Table 3. Binding to human IL-23R was determined using the BIAcore® label-free interaction analysis system (surface plasmon resonance), essentially as described in Example 4 (supra). Chimeric forms, designated as “chim,” refers to rat variable domains linked to human IgG1 heavy chain and human kappa light chain constant domains, e.g., as presented at SEQ ID NOs: 16 and 17, respectively, or as at SEQ ID NOs: 22 and 23, respectively. Sequences for heavy and light chain variable domains are provided at FIGS. 1 and 2, and in the Sequence Listing (as described at Table 4). Antibodies incorporate the sequence changes recited in the table (“Variant(s)”) for the respective heavy and light chains. Data arc presented as mean±standard deviation for multiple determinations, and without error estimates for single determinations.

human IL-23R [2] = molecular target: T1, human IL-23R; assay: KinExA
Procedure: (§2) The equilibrium dissociation constants (Kd) for anti human IL-23R antibodies are determined using the KinExA. 3000 instrument. Sapidyne Instruments Inc., Boise Id., USA. KinExA uses the principle of the Kinetic Exclusion Assay method based on measuring the concentration of uncomplexed antibody in a mixture of antibody, antigen and antibody-antigen complex. The concentration of free antibody is measured by exposing the mixture to a solid-phase immobilized antigen for a very brief period of time. In practice, this is accomplished by flowing the solution phase antigen-antibody mixture past antigen-coated particles trapped in a flow cell. Data generated by the instrument are analyzed using custom software. Equilibrium constants are calculated using a mathematical theory based on the lowing assumptions: [0177] 1. The binding follows the reversible binding equation for equilibrium: […]
PMMA particles (Sapidyne, Cat No. 440198) are coated with biotinylated IL-23R (or a fragment thereof, such as the extracellular domain) according to Sapidyne “Protocol for coating PMMA particles with biotinylated ligands having short or nonexistent linker arms.” EZ-link TFP PEO-biotin (Pierce, Cat. No. 21219) is used to make biotinylated IL-23R, as per the manufacturer's recommendations (Pierce bulletin 0874).

human IL-23R [3] = molecular target: T1, human IL-23R; assay: BIAcore SPR, antibody immobilised; remark: listed apart in the source
Procedure: as §1

human IL-23R [4] = molecular target: T1, human IL-23R; assay: KinExA, full-length chimeric antibody; N31T variant, full-length chimeric
Procedure: as §2
(§3) PMMA particles (Sapidyne, Cat No. 440198) are coated with biotinylated IL-23R (or a fragment thereof, such as the extracellular domain) according to Sapidyne “Protocol for coating PMMA particles with biotinylated ligands having short or nonexistent linker arms.” EZ-link TFP PEO-biotin (Pierce, Cat. No. 21219) is used to make biotinylated IL-23R, as per the manufacturer's recommendations (Pierce bulletin 0874). […]

human IL-23R [5] = molecular target: T1, human IL-23R; assay: KinExA, full-length chimeric antibody
Procedure: as §2, §3

human IL-23R [6] = molecular target: T1, human IL-23R; assay: KinExA, full-length chimeric antibody; original sequence (no N31T)
Procedure: as §2, §3

| Binder | Kd (human IL-23R [1]) [nM] | Kd (human IL-23R [2]) [nM] | Kd (human IL-23R [3]) [nM] | Kd (human IL-23R [4]) [nM] | fold improvement in binding affinity against the original sequence (human IL-23R [5]) [fold] | Kd (human IL-23R [6]) [nM] |
| --- | --- | --- | --- | --- | --- | --- |
| B1 | 0.27 | 0.042 | ~0.3 |  |  |  |
| B2 |  |  |  | 0.008 | 3 |  |
| B3 | 0.345 |  |  |  |  | 0.025 |
